This series is described as follows: amyloid nucleation score (Sup35N fusion, yeast selection) (log enrichment); library NNK2; higher = more nucleation; inactive = no reads after selection. A digest of the protocol: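 Peptides of 20 random codons, each fused to Sup35N, were expressed in psi-negative yeast. Cells were induced with 100 μM copper sulfate for 24 hours and grown 7 days at 30°C on medium lacking adenine and uracil, and plasmid inserts before and after selection were Illumina-sequenced. Nucleation scores are DiMSum log enrichments of output over input reads, centred on the mode score of non-aggregating sequences, and sequences under 100 input reads were excluded.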

± gives the uncertainty stated by the source.

The record followed here is the supplement of paper PMC12042874.

In turn, PTLHMGMPN registered an amyloid nucleation score of -0.013 ± 0.79.

The substance CSRKDYSYRVMKFVFCIYGL displayed an amyloid nucleation score of 6.45 ± 0.061. Substance KSRISMPPSVLLDYGLAHNA yielded an amyloid nucleation score of -0.598 ± 0.63. In the case of VREVDILYYC, the amyloid nucleation score came out at 0.418 ± 0.48. CFFLTHCRDIRNVSTV gave an amyloid nucleation score of -0.234 ± 0.37. For the substance CSYCFCCVH, the amyloid nucleation score turned out to be 8.29 ± 0.065.

Substance PSLMNEVRMGVQCLLFST came in with an amyloid nucleation score of 0.108 ± 0.23. With CMQLSYSYSLTFEGQCHLVG, the amyloid nucleation score turned out to be 4.27 ± 0.088.

With WLVSSVSCQPMSQSSFVGGL, the amyloid nucleation score is 5.498 ± 0.05.

The substance SHEFSRMLEEFWDHNNVRSH came in with an amyloid nucleation score of -1.1 ± 0.48. With IKVSFRRTGGLLHLCKWLTC the figure was -0.5 ± 0.33; with SCNAGVGSIS, -0.011 ± 0.46.

As to SSLWSGPKVIQDY, the amyloid nucleation score was -0.122 ± 0.28. With NEVSGNGLFSIFSQSGKSYY the entry was “inactive”. CVGDAALWWVVFIYGEHSRV yielded an amyloid nucleation score of 0.022 ± 0.41.

Regarding SFLYLPDGTDMI, the amyloid nucleation score came out at 0.171 ± 0.29. Substance CILDI showed an amyloid nucleation score of -0.089 ± 1.1. With TRNGWGSTGSLQRSQVSVWS the figure was 0.25 ± 0.42. The substance FICYNTRRVVCIYLRL displayed an amyloid nucleation score of 0.456 ± 0.74. In the case of AGKSTHLFLRAVVLLCGNPR, the amyloid nucleation score came out at 0.05 ± 0.35. With FYMMFMNLCFIYYCVLMEGY the entry was “inactive”; with HTDSLLWIPRVHFCVFF, “inactive”. With QSMMSFMSRNVFRFFMGKVT the entry was “inactive”; with SKGSWIDVSYDLV, -0.132 ± 0.37. LFIICNSVVHMDLASVGNVS: the amyloid nucleation score was 8.409 ± 0.043. With NIPLLLMFHSTIWFKMHIWE the figure was 1.51 ± 0.11.

Substance DKYFLLAYGVWGSLRFLTLC came in with an amyloid nucleation score of -0.288 ± 1. Substance RYFINSMFLGWTPFVSVNLS showed an amyloid nucleation score of -0.107 ± 0.27.

In turn, IPRSPCDKENKSRHLHVAWA displayed an amyloid nucleation score of -0.372 ± 0.45. With TPAWQLYGHTVLAGVQKNMV the figure was -0.077 ± 0.37. With PFYTYSKYKCTKFTDNYYAQ the figure was -1.02 ± 1.1.

In turn, FVWGREMGCWCQEWYRCMRN displayed an amyloid nucleation score of -0.015 ± 0.24. Regarding RFVYMLVCIELVG, the amyloid nucleation score is -0.953 ± 0.78. With VWMHMSGSIIKSWFLVRCFS the figure was -0.506 ± 0.38.

With WVGLHVR, the amyloid nucleation score amounted to 0.525 ± 0.36. With KWFNVCIWKCAWLYIDGVGC the figure was 3.95 ± 0.066; with CLQVAKDADFCIKAVEERGW, 2.42 ± 0.19; with SIDSRYW, -0.283 ± 0.63. On to KSQLYNYAVSM, for which the amyloid nucleation score was -1.59 ± 0.64. With FSVLAMAWSS the figure was -0.226 ± 1.1. In the case of CESENKQYKNRLEIP, the amyloid nucleation score was -2.05 ± 0.54. For IELFVSWKIGWVELRDVLLV, the amyloid nucleation score is -0.055 ± 0.55. Substance PLVTCHDDEVQGMKFVSFFI showed an amyloid nucleation score of -0.451 ± 0.76. Substance QWSFPAILRLDTNTSRYYFQ had an amyloid nucleation score of -0.776 ± 1.1. For the substance LWIYNYVIRLDFICMERILL, the amyloid nucleation score result is “inactive”.

NTCMLRARVSVMQNEE: the amyloid nucleation score turned out to be 0.071 ± 0.35. Regarding RTEEQ, the amyloid nucleation score is -0.254 ± 0.54. With NLDDYPG the figure was 1.66 ± 0.25; with QDEHIMVIVKLRRYTFNWEL, 2.86 ± 0.11.

INKVFNCYFLFSGHIVGLRS had an amyloid nucleation score of -0.321 ± 0.79. With ISASGVDSDEGVRPGQLMMC the figure was 10.4 ± 0.065; with VLSLLMPVVRIVWKFN, -0.084 ± 0.76. EVVLFF came in with an amyloid nucleation score of -1.35 ± 0.62. With NSGCLSLGFRHLSNPWLHS the figure was 2.71 ± 0.096; with CKSQLHLRVRTRKNVCVVIS, 0.13 ± 0.62. In turn, YDANLRLYSYSRTQLFSSWS gave an amyloid nucleation score of 3.83 ± 0.088. Regarding GSWLLGMMVLQRILMNG, the amyloid nucleation score turned out to be 1.41 ± 0.44. Substance AFVSYLCCGMYRVANSKSEG displayed an amyloid nucleation score of 9.903 ± 0.058.

Consider DWFSTLHLIGSAS, for which the amyloid nucleation score is -0.041 ± 0.63.

On to DDASKKLYS, for which the amyloid nucleation score was found to be 0.967 ± 0.15.

Turning to VKWTTVVD, the amyloid nucleation score was determined as 0.963 ± 0.26.

For the substance DNMGMRSGSSDLHREVWSHC, the amyloid nucleation score is 0.172 ± 0.35. KGNAVVSWDRS: the amyloid nucleation score turned out to be 2.36 ± 0.1. On to LLFKMAYRPLWHDNNMMTCM, for which the amyloid nucleation score is 0.112 ± 0.79. MSGICPDQSSLYIEDTSIWL: the amyloid nucleation score is 2.96 ± 0.068. Turning to LLNRSRSL, the amyloid nucleation score was -0.723 ± 0.45. Substance RFDRTRCETKSRLVRIR registered an amyloid nucleation score of 0.084 ± 0.41. With FCPRGFTLSSKFLCLNSLRM the figure was -0.344 ± 0.33. Regarding HMNYKYFWGGLFNRMLGQLN, the amyloid nucleation score result was “inactive”.

For YMSIHSKAGMVSLDLKCLCT, the amyloid nucleation score was -0.427 ± 1. GLYVLYDNINWDERTRALSG returned an amyloid nucleation score of -0.728 ± 0.48. For the substance SLHRFYYSHLYALRMRGNSR, the amyloid nucleation score is 6.16 ± 0.091. As to GIESSPFCFSLPGSATKRKQ, the amyloid nucleation score turned out to be 0.485 ± 0.36. With SPKTYRRIIGIGQVAVRVCK the figure was 0.673 ± 0.25; with LLNILISRAYLWSGFFERFL, “inactive”. With GSVREQNFISRASLYAHGLS, the amyloid nucleation score is -0.095 ± 0.29. Regarding CFTKDMLSDNCVSV, the amyloid nucleation score was -0.845 ± 1. The substance EDCVMISTCNFLFTINVLEA came in with an amyloid nucleation score of 6.38 ± 0.065. In turn, EYVRFYLMGISWEAEKSHAL showed an amyloid nucleation score of 4.23 ± 0.11.

Consider TTMWYTS, for which the amyloid nucleation score is -0.837 ± 1.1. With KRNRQMSFRMVSLTRNTSPH the figure was 0.792 ± 0.53; with FITHKDYLFAGQ, -1.16 ± 0.76; with LKLFNGVRPKNGM, -1.6 ± 0.75.

For TLWHARTVKRDKWSSYGVGR, the amyloid nucleation score was 1.83 ± 0.12. Substance SYARIYFWDEILENPSPVWE had an amyloid nucleation score of -0.378 ± 1. As to VWQQS, the amyloid nucleation score stood at 0.668 ± 0.49.

VDLGMPSLWRSDGASPGGFF returned an amyloid nucleation score of 0.277 ± 0.49. With SGCPNDWQYFSS the figure was -1.08 ± 0.54; with AWFCREKGNGFFFM, “inactive”; with WHCVRVIQRSWCVKEGSKGC, 0.118 ± 0.45. WMLNLDLLIFASLRGVVEGD: the amyloid nucleation score result is “inactive”. Take LNLGILAFSKVKIGVFQFYE: the amyloid nucleation score was 6.834 ± 0.037. As for GRWVNCKTVVLFSSDRRQAR, the amyloid nucleation score is 3.36 ± 0.14. Take KFKFKESGFEVVSLGGMVTP: the amyloid nucleation score entry is “inactive”. In turn, ISHTLHATITVLLVSNFCLS came in with an amyloid nucleation score of 0.475 ± 0.43. SFNNVKLDGRSF came in with an amyloid nucleation score of -0.59 ± 0.64. With PCWCSVLVL the figure was 1.51 ± 0.41; with KGFNKY, -0.911 ± 0.43.

For CVSSRDRG, the amyloid nucleation score stood at 0.439 ± 0.27. As to CKFLRVIA, the amyloid nucleation score was -1.42 ± 0.41. Substance YLGGMGSICDVNPCLYNRFL yielded an amyloid nucleation score of 0.655 ± 0.16. Regarding TSWSLVVVKVDIWPNQSVWV, the amyloid nucleation score was -0.391 ± 0.55. Substance LFNAVGLATV returned an amyloid nucleation score of 0.33 ± 0.74. With WTPTVFVDMHPSNGLVDILY the figure was -0.896 ± 0.61. With LILDILSRGSAYYDCTRMKG, the amyloid nucleation score entry was “inactive”.

YPCKSDF came in with an amyloid nucleation score of -1.66 ± 0.45. With NILWSNLGRMCRQLFAVFWS the figure was -0.738 ± 0.62; with HISCMKLLSRLGYTCESLMW, -1.19 ± 0.55. With YVDLKVACILYPYFSGTRQH the figure was 4.96 ± 0.078. Substance CFLWHAT displayed an amyloid nucleation score of 0.451 ± 0.41. In turn, RNIQYVAMEVCDFKFPVDGV returned an amyloid nucleation score of 0.223 ± 0.26. With VGFRRVTNMDRCSFSLCCCW the figure was 4.56 ± 0.064; with FSFSCEGANFDVYTGMWQGS, -0.073 ± 0.45.

NAPLCFKHKSRL: the amyloid nucleation score is -0.995 ± 0.44. With FYRLLWSRNCTEVR the figure was -1.43 ± 0.75; with RMRQASEAKSLGGPIGRQGL, 1.2 ± 0.15. QYLLIIMFRYYLYCGVQRNY yielded an amyloid nucleation score of -0.121 ± 1.1. For LSGLRRPNRFLYT, the amyloid nucleation score was -0.897 ± 0.43. In the case of LSGFKYWLRWL, the amyloid nucleation score result is “inactive”. With NAYVEIIIWASRDFMYCRHM the figure was -0.262 ± 0.79.

Substance LCRYFQN came in with an amyloid nucleation score of 0.218 ± 0.8. With LECNDA the figure was 0.322 ± 0.51; with MFSNQADFDTNLVSLYDKTW, -0.825 ± 0.4.

As to YLQVWYTREFYIFRGKMDLL, the amyloid nucleation score result was “inactive”. For the substance LLGLSGKYWIRGSKNSIFVW, the amyloid nucleation score was determined as 0.157 ± 0.39. Turning to AVLLTMWYLNICTHIWVQTL, the amyloid nucleation score is 0.139 ± 0.33. Turning to FSDFGMSLRISAKVEWIAMG, the amyloid nucleation score was -1.59 ± 0.78. Consider SINYKALAS, for which the amyloid nucleation score result was “inactive”.

The substance TAAVILLIVNRDANA displayed an amyloid nucleation score of 1.94 ± 0.14. With FEACVTGMLSDRF the figure was -0.871 ± 0.41; with PSRLRYITICRVPGAMSDVN, 0.268 ± 0.27; with LISGRMHNVCEPGAKSRTLR, 0.76 ± 0.18. Substance LSPRSGNRTP had an amyloid nucleation score of -0.436 ± 0.41. Turning to YGDYMFHPETAVSL, the amyloid nucleation score is 4.49 ± 0.064. On to DWQYRLKSVLVFRWQ, for which the amyloid nucleation score amounted to 3.5 ± 0.15. For the substance SFTCALRLGVRGHWLIVTSF, the amyloid nucleation score is 0.276 ± 1. With RNTYRRGGLPFVAYNRTSVG, the amyloid nucleation score turned out to be 0.125 ± 0.28. For GLFSSGRFVSADSM, the amyloid nucleation score is -0.368 ± 0.54. Regarding HRSLIIF, the amyloid nucleation score was found to be 1.97 ± 0.19.

Take LPLYMTYACPVPTSIHRIIL: the amyloid nucleation score is -0.06 ± 0.28.
